Measurements published in a protein production outcome set (Wang et al. 2014).

Assay: label from the status in PepcDB records

## MRFTNTILMTTFTALLAVALVAGCASKKKDETDPFFSKWQSLASNSTGFSPPKVVRDVKPKTLLRQEEVTAKQEEQKRPLPQMPVTLKLHNVDVGVALRSLAAAANTSIIVSPGVKGTASINVNRVPWEDVFKGILASNALDFAWRGELIQVMTLADKKAEVERELLETQRMAQQLKGRKVGPLVTSVIEVRYAEAAELKKNLEGFLSKDEQNKPVGAVVVDTHTNSLIVQAVEDDLSKIITLVNNLDKPRAQILLKAHIVEATRDTARDLGIQWGGVGRSGNMGDGNRMWVTPGGSGPTKPTDPQAGGGVPVIPPGGLSGQGFGMNFPVNKAGKTAMGSLGLMFGTIGGNMLEVQLSALQDNGKLNILSSPSISTLDNQMAFTENGEKVPYVSTNAQGDREVKFEDAVLRLEITPHVIDESNLKLKVQVKKDEVDLTRTVEGNPFIIKKQTETTLIVQDGETVVISGLTKERSSTRRQGLPYLQDVEGIGALFGNDSKANKLEDVLIFITPAILPYREETSVN
  protein production: failed

## MAKPGFRLALFATLLALIVVLLGAYTRLTHAGLGCPDWPGCYGFISVPKGEAQLAHAELHFPDTPVEAHKGWNEMIHRYFAGTLGLLIVLLAARAWTHRRHPGQPLKLPLFLLAVVFAQAAFGMWTVTLKLWPQVVTAHLLGGFATLSLLFLLTLRLSGVLPALIVPRRLQYWATAGLVLVIGQIALGGWVSSNYAAVACIDLPTCHGQWWPNMDFANGFHLTQHIGPNYLGGQLDSDARTAIHMTHRVGAVLVTLVLLGLAWQLRQTGMTRLAGLVLVALGAQVSLGLSNVFFHLPLPVAVAHNAGGAALLLTLVLVNYHARTSLVRARDRLPLGWRLSPRKQMAGPITIKGEMPWRL
  protein production: failed

## MSSSRSSWNTRAETGADVPVIRDIVRAAFPTPEEAALVDALRADAGAWIEGLSLVAVDDSDRPVGHALLTRCHIGDSPALCLAPVAVRPEHQNSGAGAAAVRAALAAAGRLGEHHVVVLGHPEYYPRFGFGRASAHGIRLSIDVPDEALMVLTLDAAHPLPAGTVRYAAPFGI
  protein production: failed

## YYLIVSQLLGDTASVKLLVPPGANPHLFSLKPSDAKTLEEADLIVANGLGLEPYLEKYREKTVFVSDFIPALLLIDDNPHIWLDPFFLKYYIVPGLYQVLIEKFPEKQSEIKQKAEEIVSGLDTVIRDSFKALLPYTGKTVVMAHPSFTYFFKEFGLELITLSSGHEHSTSFSTIKEILRKKEQIVALFREPQQPAEILSSLEKELRMKSFVLDPLGVNGEKTIVELLRKNLSVIQEALK
  protein production: not failed

## MREIPLVSVALATYNGERYLRRQLDSVLAQTYRNIEIVVSDDCSRDGTVAILEEYRRAHGITFRVNERNLGFVRNFERALAGCRGEFIALSDQDDIWLPEKIETLVREIGPHSLIYTDALLIDGDDQPLPGSLVEVSGVRPVSGTCFEYFVCNNCVTGCTAMLRRDLLATALPIPEAETYHDWWLAVAASRRNGVVYHAAKLTEYRQHAHNYTGANVRAGLPARIAAHLMGKTAAEKRGYYELLANRARRYRAMADRLNLTPAERSFLEEIGEYAESLLSGGNRMKTFALALKYRETLFPAAGRWEKLLFVFSKLIAARAILEHHHHHH
  protein production: not failed

## KEQILSSEQLARKMMLELGDKKQEHLVAIYMDTQNRIIEQRTIFIGTVRRSVAEPREILHYACKNMATSLIIIHNHPSGSPKPSESDLSFTKKIKRSCDHLGIVCLDHIIVGKNKYYSFREEADIL
  protein production: not failed

## MGQSIKNNFLLNLSTTITGLLFPLITFPYASRILMADGIGQVQFFQSIIDYVSLCTALGIPLYAVREIARIRDNKELRSRTTIEILLLHAILTLVGYIVVFILAKTVAKIEIDASLFFLLSTTLFFNTIGVAWFYQAIEDFKYITLRSLFVRILSLVALFIFVKTKQDLFYYAGILVIGTVGNNIFNFFRLRKYIKLSKGEFKRLNLLRHLIPALKIFILNLVISIYVNLDSVMLGFLKNEESVGYYAAATRLTKAILGIVSSLGAVLLPRFSNMITNGQKEEFQLLANKAASFTIALSLPMSVGLIFMAAPIIHIFCGNGFEPSILTLKLVAPIVLFIGLSGIIGMQILYPQGREKYVIISTMVGACINLLINYLLIPQYGQYGAALGTVIAEFMVTVIMILLGRKYLPINILSKQNLHYLIGSIVISILLAFLFVFPLHEVNYLLIGILLSVIVYYAYLLMIKDTLALQLKKLLLSIFKQ
  protein production: failed

## MKQHILVLEDANQRRTIILDEQQYSIGRHSGTSIQIHSRQASRHHATLMRKTNSKTNEECFWIIDGDLEGNKSQNGVFVNGEKRLIHELKNGDLINFGCSINALEHHHHHH
  protein production: failed

## MSLPANQIKEPGKQFQPAKSLKEPSQESLPGNLLKEPSQESRILCPDPDIVVELNVGGQFYTTTMGTLMKHPGSKFSEILSRSAKHYKDAQGRFFIDRPGTYFGPLLDYLRTGQVPTEYIPEVYQEAKFYQIHPLVKLLEDKPQIFGEQVARMQFLMGVPNYRENLEVLLHLARAEAVAMRSSKVVVCVVRTEEDDAKCTEPLHILEAKKTPVVKFGPWKAGPVTEDFVYCLEKDIRAKGYTVASQRYHLSRDPYTCFWILVFTWW
  protein production: failed

## MPVSLYSGKVALRLLLLQLVTFALLSAVFSLNSVNAAASALGGGLAAWLPNVLFVLFALRHQSHKPADGRVAWSFAIGEALKVFITIALLVVALGVFKAAFFPLGLTYLSVLVMQIVAPIVINRYRN
  protein production: failed

## MGTGEKTLKSFQLHRKQSVKVKDVPKGCLAIKVGSQGEEQQRFIVPVLYFNHPLFMQLLKEAEDEYGFDQKGTITIPCHVEEFRYVQALIDGERSVYNGNNHHHRHGGRDQYHHLVGCFRA
  protein production: failed

## MSEPLHALARQLEQAIRASEPFQQLKRAYEDVRRDETAYRMFANVRDIQLRLHEKQMRGAAILPDEIEQAQKAMALAQQNEKLARLMALEQQMSITIAEVQQIAMKPLEELHRSFMEGR
  protein production: not failed

## MRSFLKRTQCAQLRSTPSLIFSTGITHPAETALQRFKFLMYQVVASDLDGTLLSPDHTLSPYAKEPLKLLTARGINFVFATGRHHVDVGQIRDNLEIKSYMITSNGARVHDLDGNLIFAHNLDRDIASDLFGVVNDNPDIITNVYRDDEWFMNRHRPEEMRFFKEAVFKYALYEPGLLEPEGVSKVFFTCDSHEQLLPLEQAINARWGDRVNVSFSTLTCLEVMAGGVSKGHALEAVAKKLGYSLKDCIAFGDGMNDAEMLSMAGKGCIMGSAHQRLKDLHPELEVIGTNADDAVPHYLRKLYLS
  protein production: failed

## KRITRPGNTDDPSGGNKVLLLSIQNPLYPITVDVLYTVCNPVGKVQRIVIFKRNGIQAMVEFESVLCAQKAKAALNGADIYAGCCTLKIEYARPTRLNVIRNDNDSWDYTKPYLGRR
  protein production: not failed

## RHDFSDQTAMLELFSQLFGPYPFDQYSVVVTEDDLEIPLEAQGLSIFGANHAGGTKQWERLIAHELAHQWFGNSLGLAQWDDIWLNEGFACYAE
  protein production: failed

## MSSEKERKKKIFFQRILTVVFLGTFFYSVYELGDIFMDYYENRKVMAEAQNIYEKSPMEEQSQDGEVRKQFKALQQINQEIVGWITMDDTQINYPIVQAKDNDYYLFRNYKGEDMRAGSIFMDYRNDVKSQNRNTILYGHRMKDGSMFGSLKKMLDEEFFMSHRKLYYDTLFEGYDLEVFSVYTTTTDFYYIETDFSSDTEYTSFLEKIQEKSLYKTDTTVTAGDQIVTLSTCDYALDPEAGRLVVHAKLVKRQ
  protein production: not failed

## MANKEKLPWDLEEEILSRVPPTSLDRFKTVCKRWNALFNDKTFINNHKMTFQFVLSTRSKIYSVSVNPKVEVRELTLNNPGLKAQRHKNLFATSGLLLCDVGNGAVVWNPWLKQSRCIKLEVNEPSLDFLGIGYDNNKRVEEIVYKTLSVYMKDLGSQYTWKIHDFASDTWIDQEIEKTKYSRRITEGSVTIRLTNLSVVSLNGKFFKFCDLPSGKNRRRDALALRVFREDRFSLLRQCHVTKKIKIWVTKNKIDNRYGGDVKWMSFMEVSIPTMPDLEHPKFNSQPSYFIDDKRLVICSCDETGRAWIYVVGGNKLVSKTQLDSVVDPWPLHCTYFPSLVLVPGGQREEAELQEAKNLHVTTELYVPGKTKSSIKLHYG
  protein production: failed

## MKKDLISVVMSAYNSEKFISDSISSILDQTYENWELIIINDASSDNTLKIVNQFSEKDPRIKVIDNENNLGLTISLNIGINNSKGEFIARLDSDDFAEPSRLEKELDHLHAYPEAGLVGSGAHLINSSGNKIGSMNVMSQPYFVNRFLINLNPFIHSSIMVRKKALDNVGSYREKFRYSQDYDLILRLSDKYKLSNIALPLIRWRVSDSSVTMQHHTLQRIYADIAREFAIERRNSGHDSYESTEFDTLIHEMRIRNQGRYLCDHGVYDLLFNKKYKEGCSELIKGISKGGFPYNSFYRGITQVISKVNIQLEHHHHHH
  protein production: failed

## MAVPTELDGGSVKETAAEEESRVLAPGAAPFGNFPHYSRFHPPEQRLRLLPPELLRQLFPESPENGPILGLDVGCNSGDLSVALYKHFLSLPDGETCSDASREFRLLCCDIDPVLVKRAEKECPFPDALTFITLDFMNQRTRKVLLSSFLSQFGRSVFDIGFCMSITMWIHLNHGDHGLWEFLAHLSSLCHYLLVEPQPWKCYRAAARRLRKLGLHDFDHFHSLAIRGDMPNQIVQILTQDHGMELICCFGNTSWDRSLLLFRAKQTIETHPIPESLIEKGKEKNRLSFQKQ
  protein production: failed

## MKHYSHGIDGLRSGLSPSAKPFAIGSSSSPAFSLKSEHEDSIWGDYTLDLSFLSSDDQRSGLDDDDSLSNLSRDVETNKEGLVLEEKIASSGKVLVNPNPSFSKLPEVLMKSSDVVGDAKLGLSCVSEKSSTESDLDESEEDSPCWKGMLSHKSLASGTKSMTSRRSTDDLSGFRKLNPLAPQFIPSSSKKKLETDGEKCEETSSSSLKKSLSSTFPSSSGEFDLTDPPLEDGRNDAAEKTSILTHNADEILGFVTSDSVSKTVSMLDSRNEFQPSKRLDPLAPVFVPSSAKLGPSVHEKLGDFVVNAYSTSALASSHVKSLDKGKVVTSSGEVGHSFKSQYGGHDFGSTSSYGPWIESEVGITEYAKLGSSNKSQGQRRLNPLARQFSLADAKQKPYGYGKNQAADDLSLVVNTSGLYIPARYREDHNVVDADLAQSSVNVERFLPNMSHGGSSLITPKADSNFGSTKWIAVEPNPTFSVKGNRDFKHHLPFHVVETAASSSTSDMKALPGPSPKMDVKKLLTTMHGLSELLTLAHGSESSDSPNAEELDLINSTVQNLNLYIQNNSQEHAGNQSVAQYNSYDLKLLPNKSKLSIRDHQFPTANNMTVDLDVKRKDKYSVVSRETVPGSRSYQYGATEDNGFGQVVPTNGYQQHQGVEQINQNALFYKSLWLKAEADRCLMVYETSLSNPYP
  protein production: failed

## MLDLVAAFIALTTLLTYVNYRFIRLPPTIGVMATALVFSLIVQGLSELGYPILEVEMQEIIRRIDFSEVLMTWFLPALLFAGALHVDLSDLRSYKWPIGLLATAGVLIATFVIGGLAYYTFPLFGWQVDFIYCLLFGALISPTDPIAVLGILKSAGAPKPLATTIVGESLFNDGTAVVVFAIILGILQLGEAPTVSATAILFVQEAIGGVVFGAVLGYGVFVMMRGIDQYQVEVMLTLALVIGGAALAARLHVSAPIAMVVAGLIIGNHGRHYAMSDETRRYVDKFWELIDEILNALLFALIGLELLLLPFSWLHVAAAFALGGAVLVSRLLTVGPAILVLRRFRGANRQVPAGTIRILVWGGLRGGVSVALALSLPLGPERDLILSLTYIVVLVSILLQGLSIGPLVRRIYAGQPLEKSEGAH
  protein production: failed

## MGCCYSLSSTVDPVQDHTTDASSEPRNGGGEDPPLTKFSFSALKTATNHFSPENIVSDQTSDVVFKGRLQNGGFVAIKRFNNMAWSDPKLFLEEAQRVGKLRHKRLVNLIGYCCDGDKRFLVADFMANDTLAKRLFQRKYQTMDWSIRLRVAYFVAEALDYCNTAGFASYNNLSAYKVLFDEDGDACLSCFGLMKEINNDQITTGSVNPENVIYRFGTVLVNLLSGKQIPPSHAPEMIHRKNVFKLMDPYLKGKFSIDEANVVYKLASQCLKYEGQESPNTKEIVATLETLQTRTEAPSYEVVEMTNQEKDASSSSNLSPLGEACLRMDLASIHSILVLAGYDDDKDIIELSFEEWIQEVKELQDVRRNGDRAFVEQDFKTAIACYSQFVEERSLVYPSVYARRSLSYLFCDEPEKALLDGMHAQGVFPDWPTAFYLQSVALAKLDMNTDSADTLKEAALLEVKK
  protein production: failed
